According to patent US20040018977A1 (published 2004):

B1: CG51896-10, intracellular domain, aa 805-1047, Binding Domain (BD) fusion (other, not shown: large carriers)
chain: TKDMPPMGSPVIPTDLPLRASPSHIPSVVVLPITQQGYQHEYVDQPKMSEVAQMALEDQAATLEYKTIKEHLSSKSPNHGVNLVENLDSLPPKVPQREASLGPPGASLSQTGLSKRLEMHHSSSYGVDYKRSYPTNSLTRSHQATTLKRNNTNSSNSSHLSRNQSFGRGDNPPPAPQRVDSIQVHSSQPSGQAVTVSRQPSLNAYNSLTRSGLKRTPSLKPDVPPKPSFAPLSTSMKPNDACT
notes: also called NOV2r
B2: CG51896-10, intracellular domain, aa 690-1047, Binding Domain (BD) fusion (other)
chain: VCDHRRKDVAVVQRKEKELTHSRRGSMSSVTKLSGLFGDTQSKDPKPEAILTPLMHNGKLATPGNTAKMLIKADQHHLDLTALPTPESTPTLQQKRKPSRGSREWERNQNLINACTKDMPPMGSPVIPTDLPLRASPSHIPSVVVLPITQQGYQHEYVDQPKMSEVAQMALEDQAATLEYKTIKEHLSSKSPNHGVNLVENLDSLPPKVPQREASLGPPGASLSQTGLSKRLEMHHSSSYGVDYKRSYPTNSLTRSHQATTLKRNNTNSSNSSHLSRNQSFGRGDNPPPAPQRVDSIQVHSSQPSGQAVTVSRQPSLNAYNSLTRSGLKRTPSLKPDVPPKPSFAPLSTSMKPNDACT
notes: also called NOV2r
B3: CG51896-10, intracellular domain, aa 950-1047, Binding Domain (BD) fusion (other, not shown: large carriers)
chain: TLKRNNTNSSNSSHLSRNQSFGRGDNPPPAPQRVDSIQVHSSQPSGQAVTVSRQPSLNAYNSLTRSGLKRTPSLKPDVPPKPSFAPLSTSMKPNDACT
notes: also called NOV2r

These binders were tested against T1, NCK2, aa 1-380, Activation Domain (AD) fusion (human, UniProt O43639 1-380) (assay: yeast two-hybrid matrix mating assay, beta-gal read-out).
T1 construct: range 1-380; Also used for the sentences that name NCK2 as a partner of the cytoplasmic domain
T1 sequence (O43639 whole entry, the tested form may be a part): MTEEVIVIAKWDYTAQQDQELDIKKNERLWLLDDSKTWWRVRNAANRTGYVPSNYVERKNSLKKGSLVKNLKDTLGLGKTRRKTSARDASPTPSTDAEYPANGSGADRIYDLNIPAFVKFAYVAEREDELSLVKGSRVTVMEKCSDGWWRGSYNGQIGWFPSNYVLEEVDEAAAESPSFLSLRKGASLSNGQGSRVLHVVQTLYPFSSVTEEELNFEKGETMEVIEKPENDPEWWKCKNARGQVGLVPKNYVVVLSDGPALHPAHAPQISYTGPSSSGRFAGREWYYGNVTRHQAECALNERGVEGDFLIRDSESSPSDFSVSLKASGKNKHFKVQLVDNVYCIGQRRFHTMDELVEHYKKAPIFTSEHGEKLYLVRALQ
Method: Matrix Mating Haploid cells for the PathCalling matrix mating assay are grown up individually in 384 well plates using selective liquid media. After 1-2 days, the mating is done entirely in a nutrient rich media. The resulting diploid cells are then selected using a selective liquid media. The optical density (O.D.) of the diploid cells is measured using a spectrophotometer to measure and the cells are then transferred to a fresh plate for a Beta-gal assay. This assay is performed to determine if there is an interaction between the two proteins being tested. The Beta-gal assay is performed as follows:
2. The β-gal buffer is made using the following (per 384 well plate): 7.1 ml Sigma water, 7.5 ml 4X Z-buffer, 0.3 ml 20% IGEPAL, 30 mg CPRG, 75 μl Lyticase (10,000 U/ml) and 3.30 μl of β-gal buffer is added to each well of the plate made in step 1 using a multi-drop 384.

Binding result, binds:
B1
B2
B3
